Test results published in the Human Domainome abundance scans (Beltran et al. 2025).

B1: Far upstream element-binding protein 1, residues 98 to 169; numbered along this chain, Q96AE4 (parent)
chain: RSVMTEEYKVPDGMVGFIIGRGGEQISRIQQESGCKIQIAPDSGGLPERSCMLTGTPESVQSAKRLLDQIVE

Variants of: B1
Test: abundance fitness (aPCA) (normalised: wild type 0, dead -1); higher = more abundant; growth selection in yeast, the domain comes from the species named
Conditions: Homo sapiens

Abundance fitness: each site, then its substitutions
C51: V 0.006 | Q -0.818 | P -0.597 | K -1.12 | T -0.093 | F 0.049 | D -0.956 | L -0.019 | Y -0.116 | S -0.284 | E -1 | R -0.984 | M 0.017 | W -0.108 | G -0.417 | A -0.06 | H -0.718
M52: W -0.011 | C -0.004 | K -0.045 | G -0.137 | E -0.053 | N -0.072 | Q -0.032 | V 0 | I -0.018 | L 0 | D -0.139 | P -0.625 | Y -0.012 | A -0.056 | R -0.017 | H -0.025 | S 0.001 | T -0.033
R49: A -0.088 | N -0.085 | T -0.068 | V -0.116 | E -0.188 | W -0.318 | Y -0.072 | S -0.086 | D -0.172 | K -0.079 | C -0.183 | P -0.144 | I -0.133 | H -0.106 | Q -0.083 | L -0.18 | G -0.088 | F -0.248
P47: G -0.019 | V -0.038 | K -0.004 | N -0.012 | Q 0.019 | C -0.061 | R -0.054 | S -0.014 | E -0.025 | F -0.084 | H -0.052 | T -0.007 | M -0.088 | D -0.007 | I -0.049 | A -0.012 | L -0.02
S50: I 0.07 | E -0.06 | L -0.002 | F -0.177 | Y -0.117 | M -0.018 | W -0.174 | Q -0.025 | T -0.015 | H -0.105 | R -0.011 | A -0.048 | G -0.054 | D -0.023 | N 0.038 | P -0.043 | K -0.019 | V -0.017 | C -0.015
C35: V -0.087 | N -0.955 | Y -1.09 | T -0.172 | F -1.1 | E -0.835 | G -0.489 | A -0.036 | Q -0.936 | I -0.261 | H -0.835 | W -1.19 | K -0.945 | S -0.154 | M -0.847 | D -0.81 | R -0.935 | P -0.986 | L -0.554
S33: W -0.59 | Y -0.435 | T -0.034
Q38: A -0.017 | L -0.036 | F -0.031 | M -0.038 | T -0.027 | H -0.034 | W -0.049 | D -0.042 | P -0.844 | R -0.032 | E 0.023 | I 0.001 | K -0.041 | C -0.005 | S -0.007 | Y -0.138 | G -0.09
G44: I -0.064 | F -0.107 | P -0.061 | Q -0.023 | H -0.092 | S -0.003 | N -0.024 | D -0.017 | W -0.125 | R -0.015 | A -0.013 | Y -0.037 | C -0.019 | E -0.004 | T 0.002 | M -0.012 | L -0.05
L46: T -0.006 | C -0.026 | M -0.031 | H -0.011 | R -0.006 | E 0.016 | N -0.023 | W -0.132 | I -0.092 | K -0.006 | G -0.01 | P -0.124 | Y -0.093 | Q -0.001 | F -0.004 | D -0.006
L53: A -0.719 | D -1
E48: K -0.084 | V -0.035 | P -0.088 | G -0.045 | F -0.015 | T -0.028 | C -0.119 | L 0.001 | N -0.019 | Y 0.02 | A -0.041 | M -0.092 | Q -0.085 | I -0.057 | D -0.059 | H -0.114 | S -0.057 | W 0.004
I37: V -0.038 | K -0.911 | N -0.848 | F -0.25 | Q -0.911 | E -0.937 | T -0.48 | P -0.679 | L -0.087 | C -0.129 | Y -0.963 | M -0.081 | S -0.788 | R -1.05 | D -0.873 | H -0.775 | W -0.933 | A -0.313
S43: W -0.142 | P -0.234 | I -0.024 | D -0.042 | L -0.098 | Y -0.124 | N -0.043 | G -0.066 | R -0.086 | V -0.068 | M -0.087 | T -0.037 | C -0.131 | A -0.016 | K -0.091
G45: M -0.093 | D -0.002 | R -0.078 | C -0.034 | W -0.166 | N -0.094 | E -0.023 | V -0.111 | A -0.046 | K -0.086 | S -0.027 | P -0.078 | T -0.074 | I -0.14 | L -0.115 | Q -0.046 | Y -0.095 | H -0.163
A40: F -0.101 | R -0.064 | V -0.089 | Q -0.045 | C -0.023 | Y -0.088 | S -0.034 | T -0.024 | L -0.05 | M -0.032 | G -0.039 | D -0.039 | K -0.058 | N -0.103 | P -0.02
D42: M -0.08 | C -0.015 | L -0.095 | S -0.024 | E 0.014 | A -0.041 | H -0.04 | F -0.094 | I -0.085 | Q -0.054 | T -0.053 | Y -0.113 | N -0.031 | P 0.004 | K -0.026 | R -0.027 | W -0.089
P41: Q -0.031 | K -0.04 | L -0.155 | T -0.016 | I -0.176 | A -0.044 | D 0.009 | V -0.111 | Y -0.16 | F -0.198 | S -0.023 | H -0.124 | R -0.031 | E 0.005 | N -0.051 | M -0.064 | C -0.025
K36: I -0.078 | M -0.047 | D -0.02 | E -0.025 | T -0.062 | Y -0.149 | H -0.046 | A -0.018 | S -0.041 | P -0.666 | F -0.044 | C -0.031 | G -0.058 | N -0.059 | V -0.022 | W -0.129 | L -0.026 | R -0.034 | Q -0.04
I39: N -0.415 | K -0.445 | Q -0.35 | Y -0.207 | R -0.369 | A -0.252 | L -0.081 | C -0.109 | W -0.109 | F 0.038 | E -0.36 | M -0.026 | H -0.266 | D -0.51 | T -0.227 | V -0.032
G34: W -0.364 | L -0.147 | F -0.222 | H -0.051 | C -0.095 | M -0.117 | D -0.094 | Y -0.269 | S -0.15 | P -0.837 | R -0.071 | I -0.316 | A -0.1 | T -0.124 | E -0.06 | V -0.256 | Q -0.086 | K -0.081
